Results from PMC3281039, “Tetrahydrodipicolinate N-Succinyltransferase and Dihydrodipicolinate Synthase from Pseudomonas aeruginosa: Structure Analysis and Gene Deletion” (PLoS ONE, 2012).

Key:
[1] = target: T1, tetrahydrodipicolinate N-succinyltransferase (DapD, PA3666) (Pseudomonas aeruginosa, UniProt G3XD76); assay: crystal structure at […] Å (co-crystallization), with succinate; type: binding; set-up: recombinant DapD; model residues 1–245 and 251–343
T1 sequence (G3XD76 1-344): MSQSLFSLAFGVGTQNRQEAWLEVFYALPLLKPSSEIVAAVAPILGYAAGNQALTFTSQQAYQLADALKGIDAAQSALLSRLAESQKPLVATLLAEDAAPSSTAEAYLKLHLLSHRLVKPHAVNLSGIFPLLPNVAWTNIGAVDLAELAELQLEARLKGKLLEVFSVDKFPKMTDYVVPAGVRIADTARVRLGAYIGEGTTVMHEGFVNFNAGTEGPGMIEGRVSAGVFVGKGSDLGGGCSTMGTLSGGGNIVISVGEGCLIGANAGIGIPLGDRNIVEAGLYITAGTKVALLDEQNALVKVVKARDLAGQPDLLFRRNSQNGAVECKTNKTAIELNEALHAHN

[2] = target: T1, tetrahydrodipicolinate N-succinyltransferase (DapD, PA3666); assay: crystal structure at […] Å (soaking); IC50 in DTNB succinyltransferase assay; type: biochemical; set-up: recombinant DapD with Gly-Ser-His at the N-terminus after thrombin cleavage; residues 330–344 not modeled
[3] = target: T1, tetrahydrodipicolinate N-succinyltransferase (DapD, PA3666); assay: crystal structure at […] Å with CoA; succinate from […] in the crystallization buffer; type: binding; set-up: recombinant DapD; model residues 1–245 and 251–343
[4] = target: Tetrahydrodipicolinate N-succinyltransferase (DapD, PA3666) from Pseudomonas aeruginosa (Pseudomonas aeruginosa PAO1); assay: crystal structure; PaDapD, hanging drops, 19-20% PEG3350, 0.3-0.4 M succinate pH 6.2; tetragonal P4(1)2(1)2 (apo, CoA-succinate) and monoclinic P2(1) (apo, L-2AP, D-2AP) crystal forms
[5] = target: Tetrahydrodipicolinate N-succinyltransferase (DapD, PA3666) from Pseudomonas aeruginosa (Pseudomonas aeruginosa PAO1); assay: SEC; analytical size exclusion chromatography, Superdex-200 10/30, 25 mM Tris-HCl pH 8.0, 150 mM NaCl; calibrated with chymotrypsinogen-A, ovalbumin, albumin, catalase, ferritin
purified protein = substrate: N[C@@H](CCCCC(=O)O)C(=O)O; assay: purified protein; type: biochemical, Pseudomonas aeruginosa; details: active site groove between two subunits of the homotrimer; two arginines (Arg181, Arg193), Asn209, Ala226, Glu221
[6] = target: the molecule itself; assay: SEC; analytical size exclusion chromatography, Superdex-200 10/30, 25 mM Tris-HCl pH 8.0, 150 mM NaCl; calibrated with chymotrypsinogen-A, ovalbumin, albumin, catalase, ferritin

Molecule: CC(C)(COP(=O)(O)OP(=O)(O)OC[C@H]1O[C@@H](n2cnc3c(N)ncnc32)[C@H](O)[C@@H]1OP(=O)(O)O)[C@@H](O)C(=O)NCCC(=O)NCCS [CoA, coenzyme A]
- crystal structure at 2.40 Å (co-crystallization), with succinate [1]: Coenzyme A is bound in this narrow cleft formed at the interface of two adjacent subunits

Molecule: N[C@H](CCCCC(=O)O)C(=O)O [D-2AP, D-2-aminopimelate]
- IC50 [2]: > 20 mM

Molecule: O=C(O)CCC(=O)O [succinate]
- crystal structure at 2.40 Å with CoA; succinate from 0.4 M in the crystallizatio [3]: contains a succinate molecule bound next to the acceptor arm of the CoA in the active site cleft

Molecule: Tetrahydrodipicolinate N-succinyltransferase (DapD, PA3666) from Pseudomonas aeruginosa (enzyme)
- stoichiometry N [4]: 3
- stoichiometry N [5]: 3

B1: tetrahydrodipicolinate N-succinyltransferase (DapD, PA3666) (Pseudomonas aeruginosa PAO1) (protein)
chain: T1 sequence (G3XD76 1-344)
notes: recombinant DapD with Gly-Ser-His at the N-terminus after thrombin cleavage; residues 330–344 not modeled
- Km (purified protein): 7.0 mM

B2: Dihydrodipicolinate synthase (DapA, PA1010) from Pseudomonas aeruginosa (enzyme, Pseudomonas aeruginosa PAO1)
chain: MIAGSMVALVTPFDAQGRLDWDSLAKLVDFHLQEGTNAIVAVGTTGESATLDVEEHIQVIRRVVDQVKGRIPVIAGTGANSTREAVALTEAAKSGGADACLLVTPYYNKPTQEGMYQHFRHIAEAVAIPQILYNVPGRTSCDMLPETVERLSKVPNIIGIKEATGDLQRAKEVIERVGKDFLVYSGDDATAVELMLLGGKGNISVTANVAPRAMSDLCAAAMRGDAAAARAINDRLMPLHKALFIESNPIPVKWALHEMGLIPEGIRLPLTWLSPRCHEPLRQAMRQTGVLA
notes: Dihydrodipicolinate synthase DapA, locus PA1010, Pseudomonas aeruginosa PAO1; the gene coding for DapA was cloned in pNIC28Bsa4 by LIC; the final model holds residues 1-291 (chain A) and 2-291 (chains B, C, D); N-terminal His6 tag with TEV site from vector pNIC28Bsa4 (GenBank EF198106); also called PaDapA; source: E. coli BL21(DE3), purified (Ni-NTA, Sephadex G-25 desalting); not shown: His6, …
- stoichiometry N [6]: 2
